For orientation: Km means the substrate concentration at which the rate is half of its maximum.

This note sets out measurements from paper PMC8165797.

Holding throughout (assay): purified protein
Holding throughout (format): biochemical, Irpex lacteus
What all share (conditions): 0.1 mM H2O2, 10 mM sodium tartrate pH 3.5, 3.3 nM enzyme

Substrate in data set [1]: CCn1c(=NN=c2sc3cc(S(=O)(=O)O)ccc3n2CC)sc2cc(S(=O)(=O)O)ccc21
Substrate in data set [2]: COc1cccc(OC)c1O
Substrate in data set [3]: Nc1c(S(=O)(=O)O)cc(Nc2cccc(S(=O)(=O)CCOS(=O)(=O)O)c2)c2c1C(=O)c1ccccc1C2=O

B1: Il-DyP4 (Irpex lacteus; W410F) (protein)
chain: SAGNDSLPFENIQGDILVGMKKDKEKFVFFHINNATAFKSVLKTYAPANITSVATIIGPVANQPLAFVNLAFSHAGFGALNVTDDLQDTAFSDGQFKDSPNLGDDTSTWEEAFKGTNVDGVFLIGSNDESITAQYRDDLNAKFGDAWTIVYDLDSAARPGNEKGHEHFGYLDGISNPTIPGFGTPHPGQAVVDPGIIFTGRSKDPVMNRPSWALDGSFLVFRKLKQLVPEFNKYVLDNALQNQAGNLTVEEGAELLGSRMFGRWKSGAPIDLSPDFDDPALGNDIERNNNFNYSHPGSDLATDQTRCPFTAHIRKTNPRDLEGQGLFGDTFHAIRAGTPYGPEVTDYEASSNTTTIDRGLAFVEYQSVIGNGFRFQQQAFANNPRFPFSKGPSIQLGLDPVIGQGSPRETFGLDPRNASESFTVPQVIISNGGEYFFSPSITAIVEKFAA
notes: monomer, model residues 6-450
Turning to B1, in the data set “purified protein [1]”, the Michaelis constant (Km) turned out to be 752.00 ± 207.21 µM, the kcat was determined as 316.16 ± 61.61 s ^-1 and the kcat/Km result is “(4.20 ± 2.90) × 10^5 M^-1 s^-1”.

B2: Il-DyP4 (Irpex lacteus; W139F) (protein)
chain: SAGNDSLPFENIQGDILVGMKKDKEKFVFFHINNATAFKSVLKTYAPANITSVATIIGPVANQPLAFVNLAFSHAGFGALNVTDDLQDTAFSDGQFKDSPNLGDDTSTFEEAFKGTNVDGVFLIGSNDESITAQYRDDLNAKFGDAWTIVYDLDSAARPGNEKGHEHFGYLDGISNPTIPGFGTPHPGQAVVDPGIIFTGRSKDPVMNRPSWALDGSFLVFRKLKQLVPEFNKYVLDNALQNQAGNLTVEEGAELLGSRMFGRWKSGAPIDLSPDFDDPALGNDIERNNNFNYSHPGSDLATDQTRCPFTAHIRKTNPRDLEGQGLFGDTFHAIRAGTPYGPEVTDYEASSNTTTIDRGLAFVEYQSVIGNGFRFQQQAWANNPRFPFSKGPSIQLGLDPVIGQGSPRETFGLDPRNASESFTVPQVIISNGGEYFFSPSITAIVEKFAA
notes: monomer, model residues 6-450
On to B2, for which, in the data set “purified protein [2]”, the Michaelis constant (Km) was 172.71 ± 38.31 µM, the kcat worked out at 69.65 ± 3.46 s ^-1 and the kcat/Km result is recorded as “(4.03 ± 0.90) × 10^5 M^-1 s^-1”.

B3: Il-DyP4 (Irpex lacteus; W410Y) (protein)
chain: SAGNDSLPFENIQGDILVGMKKDKEKFVFFHINNATAFKSVLKTYAPANITSVATIIGPVANQPLAFVNLAFSHAGFGALNVTDDLQDTAFSDGQFKDSPNLGDDTSTWEEAFKGTNVDGVFLIGSNDESITAQYRDDLNAKFGDAWTIVYDLDSAARPGNEKGHEHFGYLDGISNPTIPGFGTPHPGQAVVDPGIIFTGRSKDPVMNRPSWALDGSFLVFRKLKQLVPEFNKYVLDNALQNQAGNLTVEEGAELLGSRMFGRWKSGAPIDLSPDFDDPALGNDIERNNNFNYSHPGSDLATDQTRCPFTAHIRKTNPRDLEGQGLFGDTFHAIRAGTPYGPEVTDYEASSNTTTIDRGLAFVEYQSVIGNGFRFQQQAYANNPRFPFSKGPSIQLGLDPVIGQGSPRETFGLDPRNASESFTVPQVIISNGGEYFFSPSITAIVEKFAA
notes: monomer, model residues 6-450
Take B3: in “purified protein [1]”, the Km was 275.07 ± 77.79 µM, the kcat came to 88.38 ± 15.66 s ^-1 and the kcat/Km result is “(3.21 ± 2.01) × 10^5 M^-1 s^-1”.

B4: Il-DyP4 (Irpex lacteus; W294F) (protein)
chain: SAGNDSLPFENIQGDILVGMKKDKEKFVFFHINNATAFKSVLKTYAPANITSVATIIGPVANQPLAFVNLAFSHAGFGALNVTDDLQDTAFSDGQFKDSPNLGDDTSTWEEAFKGTNVDGVFLIGSNDESITAQYRDDLNAKFGDAWTIVYDLDSAARPGNEKGHEHFGYLDGISNPTIPGFGTPHPGQAVVDPGIIFTGRSKDPVMNRPSWALDGSFLVFRKLKQLVPEFNKYVLDNALQNQAGNLTVEEGAELLGSRMFGRFKSGAPIDLSPDFDDPALGNDIERNNNFNYSHPGSDLATDQTRCPFTAHIRKTNPRDLEGQGLFGDTFHAIRAGTPYGPEVTDYEASSNTTTIDRGLAFVEYQSVIGNGFRFQQQAWANNPRFPFSKGPSIQLGLDPVIGQGSPRETFGLDPRNASESFTVPQVIISNGGEYFFSPSITAIVEKFAA
notes: monomer, model residues 6-450
For the protein B4, the Km was 71.87 ± 20.86 µM in the data set “purified protein [1]”, 229.05 ± 30.79 µM in “purified protein [2]” and 27.60 ± 7.70 µM in the data set “purified protein [3]”. Also, the kcat in “purified protein [1]” is 384.85 ± 42.27 s ^-1; in “purified protein [2]” it was 71.21 ± 2.60 s ^-1; in “purified protein [3]”, 46.11 ± 5.91 s ^-1. Besides, the kcat/Km result is reported as “(5.35 ± 2.02) × 10^6 M^-1 s^-1” in the data set “purified protein [1]”, “(3.11 ± 0.84) × 10^5 M^-1 s^-1” in “purified protein [2]” and “(1.67 ± 0.76) × 10^6 M^-1 s^-1” in the data set “purified protein [3]”.

B5: Il-DyP4 (Irpex lacteus; W294Y) (protein)
chain: SAGNDSLPFENIQGDILVGMKKDKEKFVFFHINNATAFKSVLKTYAPANITSVATIIGPVANQPLAFVNLAFSHAGFGALNVTDDLQDTAFSDGQFKDSPNLGDDTSTWEEAFKGTNVDGVFLIGSNDESITAQYRDDLNAKFGDAWTIVYDLDSAARPGNEKGHEHFGYLDGISNPTIPGFGTPHPGQAVVDPGIIFTGRSKDPVMNRPSWALDGSFLVFRKLKQLVPEFNKYVLDNALQNQAGNLTVEEGAELLGSRMFGRYKSGAPIDLSPDFDDPALGNDIERNNNFNYSHPGSDLATDQTRCPFTAHIRKTNPRDLEGQGLFGDTFHAIRAGTPYGPEVTDYEASSNTTTIDRGLAFVEYQSVIGNGFRFQQQAWANNPRFPFSKGPSIQLGLDPVIGQGSPRETFGLDPRNASESFTVPQVIISNGGEYFFSPSITAIVEKFAA
notes: monomer, model residues 6-450
Consider B5, for which, in “purified protein [2]”, the Km amounted to 953.00 ± 102.70 µM, the kcat was 56.25 ± 2.81 s ^-1 and the kcat/Km entry is reported as “(5.90 ± 2.74) × 10^4 M^-1 s^-1”.

B6: Il-DyP4 (Irpex lacteus; W294H) (protein)
chain: SAGNDSLPFENIQGDILVGMKKDKEKFVFFHINNATAFKSVLKTYAPANITSVATIIGPVANQPLAFVNLAFSHAGFGALNVTDDLQDTAFSDGQFKDSPNLGDDTSTWEEAFKGTNVDGVFLIGSNDESITAQYRDDLNAKFGDAWTIVYDLDSAARPGNEKGHEHFGYLDGISNPTIPGFGTPHPGQAVVDPGIIFTGRSKDPVMNRPSWALDGSFLVFRKLKQLVPEFNKYVLDNALQNQAGNLTVEEGAELLGSRMFGRHKSGAPIDLSPDFDDPALGNDIERNNNFNYSHPGSDLATDQTRCPFTAHIRKTNPRDLEGQGLFGDTFHAIRAGTPYGPEVTDYEASSNTTTIDRGLAFVEYQSVIGNGFRFQQQAWANNPRFPFSKGPSIQLGLDPVIGQGSPRETFGLDPRNASESFTVPQVIISNGGEYFFSPSITAIVEKFAA
notes: monomer, model residues 6-450
Take B6: in “purified protein [2]”, the Km amounted to 42.64 ± 6.32 µM, the kcat was 54.29 ± 1.08 s ^-1 and the kcat/Km result is “(1.27 ± 0.17) × 10^6 M^-1 s^-1”.

B7: Il-DyP4 (Irpex lacteus) (protein)
chain: SAGNDSLPFENIQGDILVGMKKDKEKFVFFHINNATAFKSVLKTYAPANITSVATIIGPVANQPLAFVNLAFSHAGFGALNVTDDLQDTAFSDGQFKDSPNLGDDTSTWEEAFKGTNVDGVFLIGSNDESITAQYRDDLNAKFGDAWTIVYDLDSAARPGNEKGHEHFGYLDGISNPTIPGFGTPHPGQAVVDPGIIFTGRSKDPVMNRPSWALDGSFLVFRKLKQLVPEFNKYVLDNALQNQAGNLTVEEGAELLGSRMFGRWKSGAPIDLSPDFDDPALGNDIERNNNFNYSHPGSDLATDQTRCPFTAHIRKTNPRDLEGQGLFGDTFHAIRAGTPYGPEVTDYEASSNTTTIDRGLAFVEYQSVIGNGFRFQQQAWANNPRFPFSKGPSIQLGLDPVIGQGSPRETFGLDPRNASESFTVPQVIISNGGEYFFSPSITAIVEKFAA
notes: monomer, model residues 6-450
For B7, in the data set “purified protein [1]”, the Michaelis constant (Km) was 67.29 ± 13.05 µM, the kcat turned out to be 790 ± 56.06 s ^-1 and the kcat/Km result is listed as “(1.17 ± 0.43) × 10^7 M^-1 s^-1”. Further, in the data set “purified protein [2]”, the Km amounted to 8.98 ± 1.02 µM, the kcat is 58.99 ± 0.45 s ^-1 and the kcat/Km result was “(6.57 ± 0.44) × 10^6 M^-1 s^-1”. For the same protein, in the data set “purified protein [3]”, the Km worked out at 139.87 ± 42.85 µM, the kcat amounted to 187.90 ± 37.00 s ^-1 and the kcat/Km entry is “(1.34 ± 0.86) × 10^6 M^-1 s^-1”.

B8: Il-DyP4 (Irpex lacteus; W294R) (protein)
chain: SAGNDSLPFENIQGDILVGMKKDKEKFVFFHINNATAFKSVLKTYAPANITSVATIIGPVANQPLAFVNLAFSHAGFGALNVTDDLQDTAFSDGQFKDSPNLGDDTSTWEEAFKGTNVDGVFLIGSNDESITAQYRDDLNAKFGDAWTIVYDLDSAARPGNEKGHEHFGYLDGISNPTIPGFGTPHPGQAVVDPGIIFTGRSKDPVMNRPSWALDGSFLVFRKLKQLVPEFNKYVLDNALQNQAGNLTVEEGAELLGSRMFGRRKSGAPIDLSPDFDDPALGNDIERNNNFNYSHPGSDLATDQTRCPFTAHIRKTNPRDLEGQGLFGDTFHAIRAGTPYGPEVTDYEASSNTTTIDRGLAFVEYQSVIGNGFRFQQQAWANNPRFPFSKGPSIQLGLDPVIGQGSPRETFGLDPRNASESFTVPQVIISNGGEYFFSPSITAIVEKFAA
notes: monomer, model residues 6-450
As to B8, in the data set “purified protein [1]”, the Km stood at 19.47 ± 4.41 µM, the kcat was 52.78 ± 2.86 s ^-1 and the kcat/Km entry is given as “(2.71 ± 0.65) × 10^6 M^-1 s^-1”. In addition, in the data set “purified protein [2]”, the Km is 1082.00 ± 283.00 µM, the kcat came to 18.28 ± 2.30 s ^-1 and the kcat/Km result is listed as “(1.69 ± 0.81) × 10^4 M^-1 s^-1”.
